Laboratory results taken from publication PMC5943350.

Experiments:
[1] = target: TNFRII-Trimer fusion protein (homotrimeric soluble human TNF receptor II fused to the Trimer-Tag, the C-propeptide of human α1(III) collagen) (human) (UniProt P20333); assay: SEC + other: non-reducing SDS-PAGE; purified TNFRII-Trimer on 10% SDS-PAGE under non-reducing or reducing conditions (Coomassie; Western blot under non-reducing conditions too) and SEC-HPLC (Sepax Zenix-C SEC-300, OD280), TNFRII-Fc as dimeric control
[2] = target: human TNF-α (human) (UniProt P01375)
UniProt P01375, sequence (P01375 77-233): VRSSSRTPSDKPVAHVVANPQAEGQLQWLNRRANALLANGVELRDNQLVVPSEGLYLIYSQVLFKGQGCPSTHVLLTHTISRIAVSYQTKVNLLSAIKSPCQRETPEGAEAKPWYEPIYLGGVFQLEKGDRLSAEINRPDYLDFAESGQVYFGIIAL

TNFRII-Trimer fusion protein (homotrimeric soluble human TNF receptor II fused to the Trimer-Tag, the C-propeptide of human α1(III) collagen) (from UniProt P20333 23-256)
stoichiometry N [1]: 3

TNFRII-Fc (dimeric soluble human TNFRII receptor-Fc fusion) (from UniProt P20333 23-257)
IC50 of neutralisation of TNF-α (2.5 ng/mL)-induced cytotoxicity in L929 cells, MTT assay, molar basis [2]: 0.0986 nM
IC50 of neutralisation of TNF-α (2.5 ng/mL)-induced cytotoxicity in L929 cells, MTT assay, weight basis [2]: 0.0101 µg/mL
